In article PMC9203827:

Biological target: papain (UniProt P00784)
UniProt P00784, sequence (P00784 134-345): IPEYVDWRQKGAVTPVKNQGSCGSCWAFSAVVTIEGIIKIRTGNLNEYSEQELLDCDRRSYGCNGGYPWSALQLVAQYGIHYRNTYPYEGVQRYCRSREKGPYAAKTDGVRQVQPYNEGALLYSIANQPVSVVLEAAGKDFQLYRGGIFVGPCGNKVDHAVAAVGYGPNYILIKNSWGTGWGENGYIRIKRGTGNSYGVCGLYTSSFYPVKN

inhibition of papain proteolytic activity on azocasein (absorbance); rCYST-B 0-80 μg (text: μg/μL) pre-incubated with 10 μL papain (0.1 μg/μL) at 28°C for 30 min; inhibition rises from 30 μg/μL: 100%
Substance: recombinant cystatin-B from the red piranha Pygocentrus nattereri (natural protein)
